# Molecular target: BamA (E. coli (endogenous in MC4100-derived strains)), P0A940
# Experiment: cross-linking; in vivo formaldehyde cross-linking (0.7%, 12 min, room temperature, cells in PBS pH 7.6), SDS-PAGE and immunoblot with anti-RcsF and anti-BamA; strains grown in glucose minimal medium at 30°C; backgrounds: WT, ΔbamE, bamA101, bamB::Kan, bamD(R197L), bamD(L13P), bamA(F494L) and combinations
# Conditions: remark: other sources report otherwise
binder,measurement,value
"regulator of capsule synthesis protein F (RcsF), P69411 16-134 (natural protein, here or on the partner: lipid moiety on the N-terminal domain (lipoprotein)) CSMLSRSPVEPVQSTAPQPKAEPAKPKAPRATPVRIYTNAEELVGKPFRDLGEVSGDSCQASNQDSPPSIPTARKRMQINASKMKANAVLLHSCEVTSGTPGCYRQAVCIGSALNITAK",fraction of BamA cross-linked to RcsF (ΔbamE strain),30%

# Source: publication PMC6529637
